Data from patent publication EP3964526A1.

Experiments:
[1] = biological target: membrane-bound TNFalpha on stably transfected CHO cells (B-220 cells); experiment: FACS, beads with CHO-TNFα (B220) cells, Sample 2
[2] = biological target: membrane-bound TNFalpha on stably transfected CHO cells (B-220 cells); experiment: FACS, anti-CD19-APC beads with TNFalpha-transfected CHO cells (Fig. 4b)

APC labeled unrelated antibody (anti-CD 19) (coated on beads)
% bound beads [1]: 0.9%
# Events (P4, CHO cells bound to anti-CD19 beads) [2]: 6 events
% Parent (P4, CHO cells bound to anti-CD19 beads) [2]: 0.1%
% Total (P4, CHO cells bound to anti-CD19 beads) [2]: 0.1%
